Measurements: patent publication US7125850B2, “Methods of identifying inhibitors of GADD45 polypeptide activity, and inhibitors of such activity” (The United States of America as represented by the …, priority 1999, dated 2006)
One block for each molecule: values may come before it.

Key:
RKO cells = assay: Flow cytometry cell cycle analysis of RKO cells after base-damaging agent; assay type: cell-based, human; conditions: parental RKO cells, 25 μg/ml
Experimental: Using flow cytometry analysis, cell cycle distributions of unsynchronized cell populations were performed (for flow cytometry analysis, cells were harvested with 3.5 mM EDTA-PBS buffer, fixed with 70% ethanol for at least 1 hr at 4° C., treated with 20 μg/ml RNase A for 30 min, stained with 60 μg/ml of propidium iodide (PI) for DNA content, and analyzed for cell cycle status with a FACScan cell sorter (Becton Dickinson). At least 10,000 cells were collected. The cell cycle profiles were calculated using the CellQuest and ModFit Lt software. Experiments were repeated at least twice.) The parental human RKO colon carcinoma cells and three isogenic RKO-derived clones stably expressing antisense GADD45 mRNA (discussed above) were analyzed.
Cells were treated with base-damaging agents: either 6.3 Gy of γ-radiation; 5 J/m^2 of UV; or, 25 μg/ml of the base-damaging alkylating agent MMS. These doses for MMS and UV radiation were selected because they were not toxic to these cells in a short-term growth assay. […] The cell cycle status of the cells was then analyzed and quantitated by flow cytometric analysis profile (as described above). […] IR caused a significant accumulation in G2/M with concomitant reductions in G1 and S in all four cell lines.

Cdc2 = Cdc2 (Homo sapiens, UniProt P06493); assay: Co-immunoprecipitation of Myc-tagged GADD45 with Cdc2 antibody in transfected RKO cells; assay type: cell-based; set-up: endogenous in cells; host or cells: RKO (human colon carcinoma)
Source text: In order to determine if GADD45 associates with Cdc2 in vivo, RKO cells were transfected with Myc-epitope-tagged expression vectors. To construct the Myc-tag-GADD45 expression vector, internal GADD45 primers were designed to contain an in-frame 5′ NdeI site and were used to amplify the desired regions from a human GADD45 cDNA construct. PCR products were cloned into the pcrII vector using the TA Kit (Invitrogen, Carlsbad, Calif.) and sequenced prior to subcloning into XhoI/XbaI cut pCS2MT. This allowed expression of the GADD45 constructs tagged with 6 copies of the Myc epitope recognized by the monoclonal 9E10 antibody at the amino-terminus (Rupp (1994) Genes Dev. 8:1311–1323; Turner (1994) Genes Dev. 8:1434–1447).
For mammalian cell transfection, 10^6 RKO cells were seeded onto 100 mm plates the day before transfection. […]
Lysates from cells expressing Myc-tag-GADD45 fusion protein or unfused Myc-tag were immunoprecipitated with antibodies to c-myc and Cdc2 (both from Santa Cruz Biotech.). […] Following immunoblot analysis, the Myc-tagged GADD45 protein was detected in both the cell lysate and after immunoprecipitation with anti-Myc antibody. […] After immunoprecipitation with Cdc2 antibody, Myc-tagged GADD45 was also detected. No GADD45 was detected with (i.e., was co-immunoprecipitated by) the control antibodies. […]

cellular Cdc2 = target: T1, cellular Cdc2 (Homo sapiens, UniProt P06493); assay: GST pull-down from RKO cell lysate, immunoblot for Cdc2; assay type: binding; conditions: 100 ng protein, 1 mg RKO cellular protein
T1 construct: GST-GADD45 fusion protein were incubated with one mg of RKO cellular protein; endogenous in cells; host or cells: RKO (human colon carcinoma)
Source text: For these experiments, a recombinant glutathione-S-transferase (GST)/GADD45 fusion protein was constructed. The GADD45 insert was PCR amplified from pHul45B2 using the following primers: (SEQ ID NO:3) 5′[…] 3′ and (SEQ ID NO:4) 5′[…] 3′. Products were cloned into a pcrII vector using the TA cloning kit (Invitrogen, San Diego, Calif.). A representative clone was confirmed by sequencing. The selected insert was removed by XhoI and NotI digestion, gel purified using the Wizard DNA Purification Kit (Promega, Madison, Wis.), and ligated into the XhoI/ NotI digested pGEX4T vector (Pharmacia, Piscataway, N.J.). GST-GADD45 fusion protein induction was prepared from freshly transformed BL21 bacterial cells (Novagen). 150 ml of overnight culture was diluted into 1L of LB with ampicillin and grown at 37° C. to late growth phase (OD600 was approximately 0.8). […]
To detect binding of cellular Cdc2 to GST-tagged GADD45, 100 ng of GST or GST-GADD45 fusion protein were incubated with one mg of RKO cellular protein for 4 hr at […]. […] Antibody was detected by a chemiluminescence system in accordance with the instructions of the manufacturer (Amersham, Buckinghamshire, England)
(§1) GST-GADD45 fusion protein or GST alone, which were linked to Sepharose beads, were incubated with cellular lysates, isolated, and analyzed by immunoblotting, as described above.

cyclin B1 = target: T2, cyclin B1 (Homo sapiens, UniProt P14635); assay: GST pull-down from RKO cell lysate, immunoblot for cyclin B1; assay type: binding; conditions: 100 ng protein, 1 mg RKO cellular protein
T2 construct: endogenous in cells; host or cells: RKO (human colon carcinoma)
Experimental: To detect binding of cellular Cdc2 to GST-tagged GADD45, 100 ng of GST or GST-GADD45 fusion protein were incubated with one mg of RKO cellular protein for 4 hr at […]. Complexes were then washed three times with lysis buffer and loaded onto a 12% SDS-PAGE gel. Following electrophoresis, the proteins were electrophoretically transferred to Immobin membranes (Millipore, Bedford, Mass.). The membranes were blocked for 30 min in 5% nonfat milk and then incubated with anti-Cdc2 (Santa Cruz Biotechnology, Santa Cruz, Calif.) and anti-cyclin B1 (Pharmingen, San Diego, Calif.) monoclonal mouse antibodies. Antibody was detected by a chemiluminescence system in accordance with the instructions of the manufacturer (Amersham, Buckinghamshire, England)
as §1

Cdk2 = target: T3, Cdk2 (Homo sapiens, UniProt P24941); assay: GST pull-down from RKO cell lysate, immunoblot for Cdk2; assay type: binding
T3 construct: GST-GADD45 fusion protein were incubated with one mg of RKO cellular protein; endogenous in cells; host or cells: RKO (human colon carcinoma)

T2 sequence (P14635 whole entry): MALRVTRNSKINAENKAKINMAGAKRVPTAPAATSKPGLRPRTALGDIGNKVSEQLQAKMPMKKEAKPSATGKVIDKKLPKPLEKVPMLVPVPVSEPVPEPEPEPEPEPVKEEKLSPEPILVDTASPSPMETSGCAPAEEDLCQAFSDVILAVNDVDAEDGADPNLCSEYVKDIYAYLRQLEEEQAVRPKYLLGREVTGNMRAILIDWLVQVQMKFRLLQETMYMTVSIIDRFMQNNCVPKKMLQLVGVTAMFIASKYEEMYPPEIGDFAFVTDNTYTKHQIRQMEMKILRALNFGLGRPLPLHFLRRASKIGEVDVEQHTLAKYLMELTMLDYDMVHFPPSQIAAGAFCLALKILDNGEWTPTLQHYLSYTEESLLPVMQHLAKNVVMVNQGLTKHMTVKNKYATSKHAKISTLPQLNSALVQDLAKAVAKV
T1 sequence (P06493 whole entry, the tested form may be a part): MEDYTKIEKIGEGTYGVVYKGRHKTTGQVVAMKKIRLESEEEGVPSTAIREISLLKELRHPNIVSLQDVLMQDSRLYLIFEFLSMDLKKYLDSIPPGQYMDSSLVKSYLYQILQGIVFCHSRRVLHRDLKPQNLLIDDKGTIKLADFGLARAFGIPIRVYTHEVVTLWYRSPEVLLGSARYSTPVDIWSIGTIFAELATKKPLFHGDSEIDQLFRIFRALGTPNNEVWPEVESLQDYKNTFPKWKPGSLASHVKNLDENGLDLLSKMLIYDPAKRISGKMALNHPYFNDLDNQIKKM
Cdc2, sequence (P06493 whole entry): as the sequence (P06493 whole entry, the tested form may be a part) above

Molecule: COS(C)(=O)=O [MMS, methyl methanesulfonate]
cell cycle accumulation (RKO cells): accumulated in S and G2/M

detection after immunoprecipitation with Cdc2 antibody (Cdc2): also detected
B1: Myc-tagged GADD45: GADD45 tagged with 6 copies of the Myc epitope, expressed in RKO cells (protein)
chain: MTLEEFSAGEQKTERMDKVGDALEEVLSKALSQRTITVGVYEAAKLLNVDPDNVVLCLLAADEDDDRDVALQIHFTLIQAFCCENDINILRVSNPGRLAELLLLETDAGPAASEGAEQPPDLHCVLVTNPHSSQWKDPALSQLICFCRESRYMDQWVPVINLPER
modifications: left off: small tags and cut ends

association with cellular Cdc2 (cellular Cdc2): found to associate
association with cyclin B1 (cyclin B1): did not associate
association with Cdk2 (Cdk2): No association
B2: GST-GADD45: recombinant glutathione-S-transferase (GST)/GADD45 fusion protein on Sepharose beads (protein)
chain: TLEEFSAGEQKTERMDKVGDALEEVLSKALSQRTITVGVYEAAKLLNVDPDNVVLCLLAADEDDDRDVALQIHFTLIQAFCCENDINILRVSNPGRLAELLLLETDAGPAASEGAEQPPDLHCVLVTNPHSSQWKDPALSQLICFCRESRYMDQWVPVINLPER
modifications: left off: a dimerising Fc or GST
notes: recombinant glutathione-S-transferase (GST)/GADD45 fusion protein on Sepharose beads
